In the supplement of paper PMC10724198:
± gives the standard deviation of the averaged measurements.

System: Saccharomyces cerevisiae
Experiment: protein stability index of tFT-peptide fusion (C-terminal peptide) (PSI (0-1 scale)); higher = more stable (slower turnover)
Conditions: genetic background: wild type; temperature: 30 C
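Further: PSI is a weighted mean of sequencing reads over stability bins, variants kept only with over 10 reads, mCherry proximal and sfGFP distal, peptide attached via GGGS linker.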

Sequence	protein stability index
TQYMRVVQAKPD	0.659 ± 0.055
WGAGGGGWWGGV	0.731 ± 0.03
GVLLWWGRRRGE	0.7224 ± 0.0048
PQIIFVSRASYL	0.681 ± 0.015
ALSRLLPPRPPV	0.608 ± 0.027
ESLLFICAHALV	0.566 ± 0.017
LDSSPPCSSNCD	0.736 ± 0.058
AFVEGMAYLLII	0.524 ± 0.017
RPSHSRPITLPT	0.707 ± 0.12
IACLDVLRRALF	0.627 ± 0.016
SPAGQRPQVPVS	0.667 ± 0.075
SRSRPLCGVSGV	0.687 ± 0.052
TSAPRGNGKPEQ	0.678 ± 0.016
PPPPLSAPPFSS	0.697 ± 0.051
ISYQVDIIKGKI	0.6781 ± 0.00071
SHPLTLPSLLPP	0.717 ± 0.045
ACSTALPFSFAS	0.689 ± 0.0074
DVDYGEIDYQIK	0.708 ± 0.011
LPLPHPQPTPYP	0.756 ± 0.046
RDPDTWKLFSLT	0.687 ± 0.043
PLGPPPPPPLPS	0.7222 ± 0.0058
GGEGGWLGEGIG	0.59 ± 0.0098
NQNKENKEIDRK	0.64 ± 0.097
DHSWPSTDRVLL	0.676 ± 0.0096
FVCCSIRFGCGW	0.604 ± 0.014

Sequence	protein stability index
GGGGVFGVVRVG	0.631 ± 0.037
SRGVSIQQSIKI	0.726 ± 0.037
FPHRHAPYPSAI	0.7 ± 0.035
SPGDVVVAVGGG	0.6669 ± 0.0037
FISVFALWDVFL	0.7 ± 0.01
PLLLHHPPPRVP	0.666 ± 0.029
FVGSVFWCWSGR	0.706 ± 0.032
EPRWPCNVAGIV	0.706 ± 0.13
SVDEARSVRCVI	0.661 ± 0.025
GGCFGGVGGGSG	0.707 ± 0.034
SEAFDSSARRAL	0.541 ± 0.043
FFTPSKQSQAYC	0.662 ± 0.027
WGRTRGDHGGKK	0.686 ± 0.04
SLLSTPPPLASP	0.669 ± 0.039
LRLSSYRAPRPR	0.649 ± 0.032
KKKKPKQKQKET	0.686 ± 0.016
GYWGRGGGLGGV	0.7438 ± 0.001
RRGLHWQAVCRY	0.733 ± 0.023
PHADFALFPFSP	0.785 ± 0.036
CFCYSLSINLNL	0.522 ± 0.0072
TPLNPDSLDRPT	0.657 ± 0.0097
DKYFRYKEERTY	0.766 ± 0.16
SPSVRSPFSLPP	0.7383 ± 0.0052
GWLGFVGGVRVQ	0.685 ± 0.0063
VVHSRSTPAHPH	0.679 ± 0.12

Sequence	protein stability index
PFPPPPVPHARR	0.775 ± 0.22
SPSSPPSKCLSL	0.688 ± 0.039
LNPPPPPDPPPT	0.585 ± 0.048
GPEAVARIFDDE	0.708 ± 0.0095
HPAGPSGRLLPT	0.685 ± 0.0095
RLGPSAPLFVHL	0.542 ± 0.042
FRSPRFLRSPPR	0.793 ± 0.064
PRGLGYHGALVL	0.571
TLPARPSVPLPP	0.629 ± 0.06
TNRNGQQRWEKG	0.64 ± 0.0078
KKNEVIKKNLRK	0.616 ± 0.063
PPDSPSPLPPPP	0.681 ± 0.054
RKSKYKGTQRIN	0.564 ± 0.011
PSQTTRSPPPPP	0.708 ± 0.015
RLHSLLFYALGS	0.668 ± 0.028
RIERIYEIKKNR	0.68086 ± 7.2e-05
FYPRPTVPPHGL	0.585 ± 0.024
PPGSSPPPVLSL	0.703 ± 0.022
FESGINWLLSDK	0.672 ± 0.06
LGVGGRWVGPGA	0.722 ± 0.027
VFFRGVVVLLRL	0.472 ± 0.048
LWGVGGADARLQ	0.775 ± 0.021
WFPSSLPLTCIQ	0.651 ± 0.084
AGVGMGAVAGGS	0.705 ± 0.02
VGCLGYNSAGIN	0.6968 ± 0.0065

Sequence	protein stability index
GEGLGIGGYVRG	0.672 ± 0.044
PGPTNSSLTASD	0.7667 ± 0.0037
TSTTRRGPRSRF	0.8168 ± 0.0029
PPHLFLPSSMPF	0.693 ± 0.015
IVENSLEEKERR	0.673 ± 0.056
CLSLVCGFPVVY	0.605 ± 0.0099
WLAVVGRDGFLG	0.729 ± 0.016
FLFVVSFGGAVA	0.512 ± 0.0061
MNLVEIIRGVRL	0.7063 ± 0.0051
GSNMTQAMTAGG	0.656 ± 0.027
SGGAGGSCMRYV	0.704 ± 0.022
MSLSLLSLFSSL	0.606 ± 0.027
AVGVRSSGRVSI	0.7246 ± 0.0034
PPSSPPPPLPPS	0.712 ± 0.035
PHTGVKRDIENE	0.693 ± 0.092
AVGPAGSQATIC	0.706 ± 0.1
RKRTIVCRPGRV	0.698 ± 0.021
RGLGCEVGTVEV	0.768 ± 0.0077
LPFSPLSLLAHP	0.782 ± 0.044
GTYGLCVWGRYL	0.633 ± 0.056
FCLGSVIWERDS	0.625 ± 0.076
DVSIFTNELGFY	0.763 ± 0.01
PPPLSLLPAPPA	0.6953 ± 0.0021
DSPPHPPPASAP	0.714 ± 0.017
APVQLDNKVVLM	0.699 ± 0.04

Sequence	protein stability index
ILSRAGMITHCR	0.642 ± 0.019
AYQFLCFSGMIT	0.761 ± 0.27
PPPPPPPAPPLP	0.648 ± 0.044
LSLLKPLALCES	0.559 ± 0.032
LLALVLTYLLYG	0.564 ± 0.03
GQRKQKIKKKRK	0.647 ± 0.16
SRLRFSIAPSIF	0.685 ± 0.022
GIIDGGTISRNK	0.692 ± 0.013
KKKKNKLRNKQE	0.656 ± 0.015
PLWAVRPLLPPE	0.677 ± 0.016
SSNSRPTGSGGS	0.694 ± 0.1
NESLKHDCVKDT	0.735 ± 0.13
GRRAGGTGAPSR	0.642 ± 0.016
APAPAPARTPTR	0.683 ± 0.016
GSANIDQEGVQY	0.781 ± 0.091
WVSRDFLVEAVW	0.557 ± 0.026
SVLRPPAAPPFL	0.674 ± 0.046
PPPLSLSCPFRP	0.712 ± 0.052
ISGIKNKKKKGT	0.684 ± 0.066
VAIGGGLGGDRC	0.719 ± 0.032
FTPPPLLLPPPP	0.698 ± 0.0037
FWGRYIGRDRGT	0.62 ± 0.12
PISTHYGSAVFM	0.692 ± 0.029
YGPDQIGPRPGL	0.69 ± 0.041
PSFLSPCPPFLS	0.747 ± 0.039

Sequence	protein stability index
IILDRQNRDLKY	0.634 ± 0.084
VFLGRWKFFFWG	0.619 ± 0.023
SVRAHGDIQIPR	0.732 ± 0.073
ECFVCGGGILGG	0.637 ± 0.09
GVCPPAGDAGGV	0.711 ± 0.018
LLDGRNVPRFRK	0.792 ± 0.042
FSTIWSLPLSPR	0.716 ± 0.038
RKHMCSYIRVSR	0.723 ± 0.085
DCNQLRGRAFRL	0.719 ± 0.034
GVIGGLRAGVGG	0.719 ± 0.079
VDRGGRVGERGR	0.597 ± 0.031
RMATGNPAPHPP	0.735 ± 0.04
VLWVLDAFCFGG	0.643 ± 0.0084
GGSRVSGVVGKG	0.608 ± 0.0076
VGSKGCDGCNRA	0.655 ± 0.047
WMDNTKKGNKDS	0.736 ± 0.06
TLSPPLPPPSPS	0.66129 ± 0.00029
GPAPAPPALSSC	0.745 ± 0.0089
ISVPPFPAPPPP	0.745 ± 0.13
AVGLCGARSLGG	0.634 ± 0.048
PPAPPARFPSPP	0.711 ± 0.068
